{"source": "paper PMC6548965", "about": "“Aptameric Probe Specifically Binding Protein Heterodimer Rather Than Monomers”", "target": "IAP-PLAP alkaline phosphatase heterodimer (Homo sapiens (Human), UniProt P09923;P05187 20-503;23-506, GPI-anchored, glycosylated)", "sequence (P09923 20-503, chain 1 of 2)": "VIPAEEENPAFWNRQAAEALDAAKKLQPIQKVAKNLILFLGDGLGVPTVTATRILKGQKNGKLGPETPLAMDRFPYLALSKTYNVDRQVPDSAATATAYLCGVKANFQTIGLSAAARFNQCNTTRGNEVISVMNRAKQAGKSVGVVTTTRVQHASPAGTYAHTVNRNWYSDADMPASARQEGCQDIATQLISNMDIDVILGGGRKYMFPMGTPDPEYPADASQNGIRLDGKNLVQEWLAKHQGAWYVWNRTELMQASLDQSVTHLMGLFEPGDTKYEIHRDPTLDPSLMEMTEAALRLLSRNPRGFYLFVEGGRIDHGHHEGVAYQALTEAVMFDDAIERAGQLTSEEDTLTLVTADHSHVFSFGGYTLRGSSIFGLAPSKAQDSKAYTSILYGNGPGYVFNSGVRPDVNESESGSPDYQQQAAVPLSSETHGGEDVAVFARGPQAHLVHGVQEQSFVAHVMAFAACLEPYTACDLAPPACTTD", "sequence (P05187 23-506, chain 2 of 2)": "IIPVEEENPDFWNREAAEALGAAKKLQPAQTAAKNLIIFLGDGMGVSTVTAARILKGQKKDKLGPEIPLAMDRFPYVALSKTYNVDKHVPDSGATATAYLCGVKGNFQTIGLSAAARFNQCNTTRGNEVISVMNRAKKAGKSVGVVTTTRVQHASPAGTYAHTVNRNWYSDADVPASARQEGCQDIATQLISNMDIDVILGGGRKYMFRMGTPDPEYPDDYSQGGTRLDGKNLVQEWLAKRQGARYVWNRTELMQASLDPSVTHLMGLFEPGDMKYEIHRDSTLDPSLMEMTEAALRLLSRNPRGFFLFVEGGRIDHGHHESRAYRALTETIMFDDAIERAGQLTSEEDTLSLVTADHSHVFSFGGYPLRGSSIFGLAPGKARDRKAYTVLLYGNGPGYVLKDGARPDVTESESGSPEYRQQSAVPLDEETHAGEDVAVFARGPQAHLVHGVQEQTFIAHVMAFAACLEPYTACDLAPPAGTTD", "test": "flow; LoVo cells, binding buffer, 4 C", "conditions": "copies: 1;1; label: FITC or AF647", "data": [{"binder": "TAAAAAATAGGGGTCGGTGTGGGTGGTTATGATTGGCTTTTTTA (ssDNA)", "note": "[BG4]", "values": [{"measurement": "Kd", "value": "11.5 ± 2.3", "unit": "nM"}]}, {"binder": "TAGGGGTCGGTGTGGGTGGTTATGATTGGC (ssDNA)", "note": "[BG2c]", "values": [{"measurement": "Kd", "value": "9.3 ± 1.6", "unit": "nM"}]}]}
